Our source for the stoichiometry N values is article PMC8906434.

For the assay, the target named is PB2-C (amino acids 247 to 736) from influenza A/Vietnam/1203/2004 (H5N1) virus (influenza A/Vietnam/1203/2004 (H5N1)). Briefly: SEC + other: SAXS.

As a reminder, the stoichiometry N is the number of molecules, sites or subunits per partner or assembly.

For the substance “Rab11a_(1-173) (truncated Rab11a, GST tag removed) (from UniProt P62491 1-173) (domain or fragment)”, the stoichiometry N stood at 1.
